First the molecules themselves.
B1: extracellular portion of CD98 (212-630 of CD98hc) (domain or fragment)
chain: ELPAQKWWHTGALYRIGDLQAFQGHGAGNLAGLKGRLDYLSSLKVKGLVLGPIHKNQKDDVAQTDLLQIDPNFGSKEDFDSLLQSAKKKSIRVILDLTPNYRGENSWFSTQVDTVATKVKDALEFWLQAGVDGFQVRDIENLKDASSFLAEWQNITKGFSEDRLLIAGTNSSDLQQILSLLESNKDLLLTSSYLSDSGSTGEHTKSLVTQYLNATGNRWCSWSLSQARLLTSFLPAQLLRLYQLMLFTLPGTPVFSYGDEIGLDAAALPGQPMEAPVMLWDESSFPDIPGAVSANMTVKGQSEDPGSLLSLFRRLSDQRSKERSLLHGDFHAFSAGPGLFSYIRHWDQNERFLVVLNFGDVGLSAGLQASDLPASASLPAKADLLLSTQPGREEGSPLELERLKLEPHEGLLLRFPYAA

Assay [1] concerns the target domain 1 of CD147 with the K63A mutation (human, UniProt P35613-2 22-205, K63A). The assay is described as follows: SPR. For orientation: Surface plasmon resonance follows binding to a sensor surface in real time, without labels.
The target in assay [2] is T1, caveolin-1 protein (UniProt Q03135 1-178).
T1 chain: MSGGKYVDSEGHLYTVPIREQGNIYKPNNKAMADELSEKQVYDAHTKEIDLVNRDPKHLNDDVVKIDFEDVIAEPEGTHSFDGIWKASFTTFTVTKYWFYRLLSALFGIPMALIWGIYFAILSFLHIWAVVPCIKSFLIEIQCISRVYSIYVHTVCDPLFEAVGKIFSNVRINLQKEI
Briefly: SPR.

The target in assay [3] is B1. The assay is described as follows: SPR.
The target of assay [4] is T1, caveolin-1 protein. Briefly: SPR; in the presence of 5A12 antibody.

What is called Kd is a measure of binding affinity in units of concentration. Regarding B1, the equilibrium dissociation constant (Kd) in assay [1] worked out at 7.49 µM.

B2: extracellular portion of CD147 (ECD), amino acids 22–205 (domain or fragment)
chain: AAGTVFTTVEDLGSKILLTCSLNDSATEVTGHRWLKGGVVLKEDALPGQKTEFKVDSDDQWGEYSCVFLPEPMGTANIQLHGPPRVKAVKSSEHINEGETAMLVCKSESVPPVTDWAWYKITDSEDKALMNGSESRFFVSSSQGRSELHIENLNMEADPGQYRCNGTSSKGSDQAIITLRVRSH
With B2, the results for the Kd (with caveolin-1 protein [2]; in assay [3]; with caveolin-1 protein [4]) were 0.0357 µM, 0.818 µM and 0.0149 µM, respectively.
